Assay [1] has as its target human CCR8 on CHO cells stably expressing human CCR8 (CHO.hCCR8) (human) (UniProt P51685). As to the kind of experiment: real-time cell binding (LigandTracer); hCCL1^AF647 added at 0.5, 10 and 50 nM in sequence to CHO.hCCR8 cells at room temperature, then dissociation in medium; signal of CHO wild-type cells subtracted; one-to-two step model.
Assay [2] concerns the target T1, human CCR8 on CHO cells stably expressing human CCR8 (CHO.hCCR8) (Homo sapiens, UniProt P51685). The assay can be described thus: cell-based or functional assay.
The target of assay [3] is T1, human CCR8 on CHO cells stably …. As to the kind of experiment: radioligand binding; unlabeled mAb1 (from 50 nM, 1:3 dilutions) against a fixed concentration of 125I-mAb1 on CHO.CCR8 cells, room temperature, 18 h; heterologous one site-fit Ki competitive binding model; three independent experiments, not averaged. As to conditions: one partner purified.

Two molecules from article PMC10692165, “Structural basis of antibody inhibition and chemokine activation of the human CC chemokine receptor 8” (Nature Communications, 2023) can be followed below.

Values joined by “and” are separate entries in the source; they are usually repeats but may differ in a detail not shown here. Equal values may be shown once.

T1 sequence (P51685 whole entry): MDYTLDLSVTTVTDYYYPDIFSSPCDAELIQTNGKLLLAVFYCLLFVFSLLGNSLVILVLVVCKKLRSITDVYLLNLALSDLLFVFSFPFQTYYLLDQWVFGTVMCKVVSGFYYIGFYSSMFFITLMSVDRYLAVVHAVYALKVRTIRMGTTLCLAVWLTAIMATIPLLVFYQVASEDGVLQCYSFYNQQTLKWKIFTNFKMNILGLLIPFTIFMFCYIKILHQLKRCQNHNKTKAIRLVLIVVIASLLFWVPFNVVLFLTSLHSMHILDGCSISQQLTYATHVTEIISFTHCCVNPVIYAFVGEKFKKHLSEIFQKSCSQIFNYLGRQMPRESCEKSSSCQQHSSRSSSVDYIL
Chain of human CCR8 on CHO cells stably expressing human CCR8 (CHO.hCCR8) (human) (P51685 whole entry): as above

“AlexaFluor647-labeled human CCL1 (hCCL1^AF647) (from UniProt P22362 24-96) (ligand)”: in assay [1], the KD of the high affinity binding event (slow on, slow off) amounted to 0.7 nM; the KD of the low affinity binding event (fast on, fast off) was determined as 15 nM; the Kd (in general, the equilibrium constant for the complex coming apart) was determined as 1 nM.

B1: anti-human CCR8 antibody mAb1 (IgG) (antibody, V domains shown)
VH: QSVEESGGRLVTPGTPLTLTCTVSGFSLSNYAMIWVRQAPGEGLEWVGTISLGGYTYYANWAKGRFTISKTSTTVDLKISSPTTEDTATYFCARARWSTDSAIYTYAFDPWGPGTLVTVSS
VL: AYDMTQTPASVEVAVGGTVTIKCQASQSISSYLSWYQQKPGQRPELLIYKASTLASGVSSRFKGSGSGTQFTLTISDLEAADAATYYCQQGYTSSNIDNIFGGGTEVVVK
notes: variable region and CH1 as the heavy chain of Fab1, deposited in PDB 8TLM; as the light chain of Fab1, deposited in PDB 8TLM; Raised in rabbits; a humanized version was also made; the IgG was detected with anti-human IgG (Fc) secondaries; In the radioligand assay the tracer was 125I-labelled mAb1 (random tyrosines); also called anti-hCCR8 mAb1; anti-CCR8 mAb1
For B1, the “Ca^2+ influx (FLIPR) in CHO.hCCR8 cells: inhibition of the signal induced by a sub-maximal (EC80) concentration of CCL1 (blocks CCL1-CCR8); apparent IC50” value in assay [2] was 57.9 nM. For the same molecule, in assay [3], the affinity, expressed as Kd, was 0.0284 nM; the Ki (in general, the equilibrium dissociation constant of an inhibitor or competing ligand from its target) is 0.0414 nM and 0.0555 nM.
